This is an account of results in PMC6689322 (Journal of structural biology, 2019).

Data set [1] has as its target ArsR As(III)-responsive transcriptional repressor from Corynebacterium glutamicum (Corynebacterium glutamicum). The data set can be described thus: crystal structure.
The data set “crystal structure” concerns the molecule itself. As to the kind of experiment: crystal structure.

A word on the stoichiometry N: it is a count of units in the complex or per binding partner. In turn, “ArsR As(III)-responsive transcriptional repressor from Corynebacterium glutamicum (natural protein)” showed a stoichiometry N in data set [1] of 2.

B1: ArsR As(III)-responsive transcriptional repressor from Acidithiobacillus ferrooxidans (natural protein)
chain: MEPLQDPAQIVARLEALASPVRLEIFRLLVEQEPTGLVSGDIAEHLGQPHNGISFHLKNLQHAGLVTVQREGRYQRYRAAMPVVRALVAYLTENCCHGTRDCALSGETRSPSVQEGNQ
B1: in “crystal structure”, the “stoichiometry N” value came out at 2.
